Results published in patent publication US20210063414A1, “METHODS FOR PREVENTING AND/OR TREATING BONE LOSS CONDITIONS BY MODULATING IRISIN” (Dana-Farber Cancer Institute, Inc., priority 2018, published 2021).
Several values for one entry are separate records, joined by “and”; a condition that tells them apart may be missing. Identical values can stand only once.

Test system: MLO-Y4 cells
Assay: Anti-apoptosis assay: H2O2-induced cell death of MLO-Y4 osteocytes
Type: cell-based
Method: Cells were stained with Hoechst 33342 and Eth-D1, and analyzed to determine the percentage of cell death. *: p<0.05, ***: p<0.001 vs 0.3 mM H2O2 treated condition. […] MLO-Y4 cells were seeded and incubated until 60% cell density. The cells were incubated with Freestyle293 medium for 4 hours and were treated with indicated concentrations of irisin for 16 hours. Sclerostin mRNA level was analyzed by qRT-PCR. Cyclophilin was used as a control house-keeping gene.
Certain materials and methods were used to generate the results described herein. […] Cells were stained with Hoechst 33342 (ThermoFisher Scientific, catalog number H3570) and Eth-D1 (ThermoFisher Scientific, catalog number E1169) and analyzed to determine the percentage of cell death using ImageJ. […] Co-precipitated irisin was analyzed by immunoblot analysis against flag tag (Sigma Aldrich, catalog number A8592). The data shown in FIGS. 5A and 5B were generated from MLO-Y4 cells treated and analyzed as in the experiments used to generate the data shown in FIG. 2D, except that pre-treatment of 100 nM RGDS (FIG. 5A) or echistatin (R & D Systems Inc., catalog number 3202/100U) (FIG. 5B) for 10 minutes was performed before irisin treatment. […] Sclerostin mRNA level was analyzed by qPCR (FIG. 7A). […] Epididymal fats were collected, RNAs were extracted from the tissues, and mRNA levels of the indicated genes were analyzed by qPCR. […]

B1: irisin: secreted cleaved form of FNDC5; recombinant human/mouse irisin with C-terminal his tag produced in HEK293 cells (protein)
chain: DSPSAPVNVTVRHLKANSAVVSWDVLEDEVVIGFAISQQKKDVRMLRFIQEVNTTTRSCALWDLEEDTEYIVHVQAISIQGQSPASEPVLFKTPREAEKMASKNKDEVTMKE
modifications: left off: small tags and cut ends
notes: secreted cleaved form of FNDC5; recombinant human/mouse irisin with C-terminal his tag produced in HEK293 cells
MLO-Y4, 0.3 mM H2O2, dose dependent
  concentration as low as which irisin prevented osteocyte cell death: 1 ng/ml and 70 pM
MLO-Y4, hydrogen peroxide
  concentrations at which irisin reduced hydrogen peroxide-induced apoptosis: 1 to 500 ng/mL
